Data taken from US20130130985A1.

Key:
Assay in all cases: cell-based or functional assay
[1] = biological target: T1, human oxytocin receptor (human), P30559
T1 chain: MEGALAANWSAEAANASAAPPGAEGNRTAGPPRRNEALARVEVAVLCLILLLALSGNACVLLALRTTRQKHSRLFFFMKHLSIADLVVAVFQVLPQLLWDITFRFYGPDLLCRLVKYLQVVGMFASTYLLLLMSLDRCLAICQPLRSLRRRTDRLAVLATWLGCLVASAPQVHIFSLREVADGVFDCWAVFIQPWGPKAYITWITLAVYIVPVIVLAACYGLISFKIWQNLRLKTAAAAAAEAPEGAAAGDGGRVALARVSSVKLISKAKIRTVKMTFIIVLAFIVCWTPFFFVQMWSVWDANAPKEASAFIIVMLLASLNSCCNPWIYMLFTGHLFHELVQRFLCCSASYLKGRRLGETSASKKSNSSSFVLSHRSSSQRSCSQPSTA

[2] = biological target: human vasopressin V1a receptor (human), P37288
[3] = biological target: T2, human vasopressin V1b receptor (human), P47901
T2 chain: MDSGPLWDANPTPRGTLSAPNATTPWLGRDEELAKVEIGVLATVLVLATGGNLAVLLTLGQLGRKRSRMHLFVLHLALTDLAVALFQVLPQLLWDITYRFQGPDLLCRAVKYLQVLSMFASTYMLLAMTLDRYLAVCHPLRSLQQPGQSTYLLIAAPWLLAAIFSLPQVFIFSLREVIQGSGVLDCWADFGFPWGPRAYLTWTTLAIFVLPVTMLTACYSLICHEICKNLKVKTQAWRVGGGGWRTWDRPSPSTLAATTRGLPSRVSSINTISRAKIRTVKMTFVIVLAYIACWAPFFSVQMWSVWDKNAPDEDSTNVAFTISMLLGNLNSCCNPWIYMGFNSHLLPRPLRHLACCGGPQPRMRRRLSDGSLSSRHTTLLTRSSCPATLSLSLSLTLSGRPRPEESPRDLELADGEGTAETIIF

[4] = biological target: human vasopressin V2 receptor (human), P30518

human vasopressin V1a receptor (human), P37288, sequence (P37288 whole entry): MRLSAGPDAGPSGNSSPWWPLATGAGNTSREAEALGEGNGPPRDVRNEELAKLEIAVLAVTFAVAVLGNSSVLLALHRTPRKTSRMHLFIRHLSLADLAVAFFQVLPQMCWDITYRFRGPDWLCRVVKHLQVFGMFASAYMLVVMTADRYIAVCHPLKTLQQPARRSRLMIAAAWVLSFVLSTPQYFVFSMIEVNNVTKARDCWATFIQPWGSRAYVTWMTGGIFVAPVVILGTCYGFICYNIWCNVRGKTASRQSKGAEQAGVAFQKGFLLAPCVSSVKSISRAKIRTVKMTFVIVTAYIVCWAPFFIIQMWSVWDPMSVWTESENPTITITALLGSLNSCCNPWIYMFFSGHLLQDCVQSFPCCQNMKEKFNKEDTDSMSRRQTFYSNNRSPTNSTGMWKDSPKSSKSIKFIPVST

Binder: UYIQNUPLG (not fully specified; modifications not checked) [d[C1,6U]-OT]
- EC50, IP-One HTRF assay [1]: 400 nM
- Emax, FLIPR calcium assay [1]: 89%
- Emax, IP-One HTRF assay [1]: 72%
- Emax, FLIPR calcium assay [2]: 100%
- Emax, FLIPR calcium assay [3]: 92%
- Emax, IP-One HTRF assay [3]: 96%
- Emax, cAMP accumulation assay [4]: 134%
